Measurements taken from patent publication US20180127487A1 (Sanofi, published 2018).
Like-named read-outs stand apart in the source and are kept apart here.

Key:
[1] = target: T1, recombinant human FcRn (human, UniProt P55899 24-297; P61769 21-119); experiment: SPR, human FcRn immobilised; relative to mAb1
T1 construct: also called human FcRn receptor

[2] = target: T2, CHIKV 37997 strain, West African lineage (envelope protein E2 on virus) (Chikungunya virus); experiment: cell-based or functional assay
[3] = target: T3, CHIKV La Reunion (LR) strain, ECSA lineage (envelope protein E2 on virus) (Chikungunya virus); experiment: cell-based or functional assay
[4] = target: T4, CHIKV Caribbean strain, Asian lineage (envelope protein E2 on virus) (Chikungunya virus); experiment: cell-based or functional assay
[5] = target: T5, recombinant mouse FcRn (mouse, UniProt Q61559 22-297; P01887 21-119); experiment: SPR, mouse FcRn immobilised; relative to mAb1
T5 sequence 1: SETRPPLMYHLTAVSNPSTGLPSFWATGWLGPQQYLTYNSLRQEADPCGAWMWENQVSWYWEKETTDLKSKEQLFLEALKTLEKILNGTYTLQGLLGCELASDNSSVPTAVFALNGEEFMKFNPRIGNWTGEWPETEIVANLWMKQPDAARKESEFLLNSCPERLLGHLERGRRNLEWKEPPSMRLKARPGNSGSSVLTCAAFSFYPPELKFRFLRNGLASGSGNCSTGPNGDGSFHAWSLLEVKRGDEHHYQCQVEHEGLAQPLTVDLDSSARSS
T5 sequence 2: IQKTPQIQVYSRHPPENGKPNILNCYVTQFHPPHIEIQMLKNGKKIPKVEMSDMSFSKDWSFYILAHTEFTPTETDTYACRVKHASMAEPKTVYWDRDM

[6] = target: Antigen (E2) (Chikungunya virus); experiment: SPR (Biacore T200), His-tagged antigen captured by anti-His antibody, 1:1 model
[7] = target: T1, recombinant human FcRn; experiment: SPR (Biacore T200), human FcRn immobilised on CM5 chip
[8] = target: T2, CHIKV 37997 strain, West African …; experiment: cell-based or functional assay; remark: listed apart in the source
[9] = target: T3, CHIKV La Reunion (LR) strain, ECSA …; experiment: cell-based or functional assay; remark: listed apart in the source
[10] = target: T4, CHIKV Caribbean strain, Asian lineage …; experiment: cell-based or functional assay; remark: listed apart in the source
[11] = target: T6, Recombinant human HPC4-tagged FcγRIIIa-V158 (human, UniProt P08637 17-208); experiment: SPR (Biacore 3000), HPC4-tagged FcγRIIIa-V158 captured on anti-HPC4 CM5 chip, antibody injected 2 min, in duplicate; concentration (900, 300 or 100 nM in the methods) not printed on the sheet
T6 construct: Valine at 158 is a polymorphism, named without an old residue; also called Val158; not shown: HPC4 tag

[12] = target: T5, recombinant mouse FcRn; experiment: SPR (Biacore T200), mouse FcRn immobilised on CM5 chip
[13] = target: T7, Recombinant human HPC4-tagged FcγRIII-F158 (human, UniProt P08637 17-208); experiment: SPR (Biacore 3000), HPC4-tagged FcγRIII-F158 captured on anti-HPC4 CM5 chip, antibody injected 2 min, in duplicate; concentration (900, 300 or 100 nM in the methods) not printed on the sheet
T7 construct: also called FcγRIIIaF158; not shown: HPC4 tag

[14] = target: T1, recombinant human FcRn; experiment: SPR, human FcRn immobilised; relative to mAb2
[15] = target: T1, recombinant human FcRn; experiment: SPR (Biacore T200), human FcRn immobilised on CM5 chip; remark: listed apart in the source
[16] = target: T7, Recombinant human HPC4-tagged …; experiment: SPR (Biacore 3000), HPC4-tagged FcγRIII-F158 captured on anti-HPC4 CM5 chip, antibody injected 2 min, in duplicate; concentration (900, 300 or 100 nM in the methods) not printed on the sheet; remark: listed apart in the source
[17] = target: T5, recombinant mouse FcRn; experiment: SPR, mouse FcRn immobilised; relative to mAb2
[18] = target: T8, His-tagged CHIKV E2 SL15649 (Chikungunya virus strain SL15649, UniProt Q8JUX5 326-1220); experiment: SPR, His-tagged antigen captured
T8 construct: also called CHIKV pE2-E1 antigen derived from CHIKV strain SL15649; pE2-E1 target

[19] = target: T9, His-tagged CHIKV E2 LR2006 (Chikungunya virus strain LR2006, UniProt Q8JUX5 326-1220); experiment: SPR, His-tagged antigen captured
T9 construct: also called CHIKV pE2-E1 antigen derived from CHIKV strain LR2006; pE2-E1 target

[20] = target: T5, recombinant mouse FcRn; experiment: SPR (Biacore T200), mouse FcRn immobilised on CM5 chip; remark: listed apart in the source
[21] = target: T6, Recombinant human HPC4-tagged …; experiment: SPR (Biacore 3000), HPC4-tagged FcγRIIIa-V158 captured on anti-HPC4 CM5 chip, antibody injected 2 min, in duplicate; concentration (900, 300 or 100 nM in the methods) not printed on the sheet; remark: listed apart in the source
[22] = target: Antigen (E2) (Chikungunya virus); experiment: SPR (Biacore T200), His-tagged antigen captured by anti-His antibody, 1:1 model; remark: listed apart in the source
[23] = target: T9, His-tagged CHIKV E2 LR2006
[24] = target: T8, His-tagged CHIKV E2 SL15649; experiment: SPR, His-tagged antigen captured (example 3, FIG. 5)
[25] = target: T9, His-tagged CHIKV E2 LR2006; experiment: as above

T6 sequence (P08637 17-208 F176V): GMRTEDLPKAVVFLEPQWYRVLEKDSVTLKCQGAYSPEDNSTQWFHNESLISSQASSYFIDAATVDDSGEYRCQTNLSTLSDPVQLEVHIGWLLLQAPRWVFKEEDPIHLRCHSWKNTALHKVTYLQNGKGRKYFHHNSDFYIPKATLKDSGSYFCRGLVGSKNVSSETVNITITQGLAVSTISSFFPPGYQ
T1 sequence (P55899 24-297 limits assumed, chain 1 of 2): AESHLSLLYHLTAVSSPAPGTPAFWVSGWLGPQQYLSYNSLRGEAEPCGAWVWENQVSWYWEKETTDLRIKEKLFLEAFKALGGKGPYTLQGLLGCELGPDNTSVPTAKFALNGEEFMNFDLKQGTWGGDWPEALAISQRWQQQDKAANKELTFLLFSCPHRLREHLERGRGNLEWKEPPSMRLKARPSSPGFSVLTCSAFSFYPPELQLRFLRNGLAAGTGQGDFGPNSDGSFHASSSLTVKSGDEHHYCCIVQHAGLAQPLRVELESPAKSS
T1 sequence (P61769 21-119 limits assumed, chain 2 of 2): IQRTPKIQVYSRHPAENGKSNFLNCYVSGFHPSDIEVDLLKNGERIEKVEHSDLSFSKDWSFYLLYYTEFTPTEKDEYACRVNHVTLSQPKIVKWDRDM
T7 sequence (P08637 17-208): as the sequence (P08637 17-208 F176V) above, with V160F counted along it

Binder | Affinity Increase (fold) [14] | Kd [15] | binding result [16] | Affinity Increase (fold) [17] | binding result [18] | binding result [19] | Kd [20] | binding result [21] | Kd [22] | binding result [24] | binding result [25] | further results
mAb1 (antibody, also called parent antibody mAb1) heavy: not shown light: QAVVTQPPSVSGAPGQRVTISCTGSSSNIGADYNVHWYQLLPGTAPKLLIYGNTNRPSGVPDRFSGSKSGTSASLAITGLQAEDEADYYCQSYDSSLSASVFGGGTKLTVLGQPKAAPSVTLFPPSSEELQANKATLVCLISDFYPGAVTVAWKADSSPVKAGVETTTPSKQSNNKYAASSYLSLTPEQWKSHRSYSCQVTHEGSTVEKTVAPTECS |  |  |  |  |  |  |  |  |  |  |  | Affinity Increase (fold) [1]: 1 fold; In vitro neutralization - EC50 (ng/ml), plaque reduction assay on Vero cells [2]: 4.8 ng/mL; In vitro neutralization - EC50 (ng/ml), plaque reduction assay on Vero cells [3]: 3.9 ng/mL; In vitro neutralization - EC50 (ng/ml), plaque reduction assay on Vero cells [4]: 7.6 ng/mL; Affinity Increase (fold) [5]: 1 fold; Kd [6]: 0.13 nM; Kd [7]: 348 nM; EC50, plaque reduction neutralization [8]: < 10 ng/mL; EC50, plaque reduction neutralization [9]: < 10 ng/mL; EC50, plaque reduction neutralization [10]: < 10 ng/mL; binding result [11]: binds; Kd [12]: 20 nM; binding result [13]: binds
mAb8 (antibody, also called mAb2YTE) heavy: QVQLVQSGAEVKKPGASVKVSCKVSGYILSKLSVHWVRQAPGKGLEWMGGSEREDGETVYAQKFQGRISLTEDTSIETAYMELSSLSSEDTAVYYCATGGFWSMIGGNGVDYWGQGTLVTVSSASTKGPSVFPLAPSSKSTSGGTAALGCLVKDYFPEPVTVSWNSGALTSGVHTFPAVLQSSGLYSLSSVVTVPSSSLGTQTYICNVNHKPSNTKVDKKVEPKSCDKTHTCPPCPAPELLGGPSVFLFPPKPKDTLYITREPEVTCVVVDVSHEDPEVKFNWYVDGVEVHNAKTKPREEQYNSTYRVVSVLTVLHQDWLNGKEYKCKVSNKALPAPIEKTISKAKGQPREPQVYTLPPSRDELTKNQVSLTCLVKGFYPSDIAVEWESNGQPENNYKTTPPVLDSDGSFFLYSKLTVDKSRWQQGNVFSCSVMHEALHNHYTQKSLSLSPG light: QAVVTQSPSSLPASVGDRVTITCRASQDIRNNLGWYQQKPGKAPERLIYGTSNLQSGVPSRFSGSGSGTEFTLTISSLQPEDFATYYCLQHNSYPPTFGRGTKVEIKRTVAAPSVFIFPPSDEQLKSGTASVVCLLNNFYPREAKVQWKVDNALQSGNSQESVTEQDSKDSTYSLSSTLTLSKADYEKHKVYACEVTHQGLSSPVTKSFNRGEC | 14.1 fold | 23 nM | binds | 19.5 fold | binds | binds | 1.2 nM | binds |  |  |  | 
mAb9 (antibody, also called mAb2LS) heavy: not shown light: QAVVTQSPSSLPASVGDRVTITCRASQDIRNNLGWYQQKPGKAPERLIYGTSNLQSGVPSRFSGSGSGTEFTLTISSLQPEDFATYYCLQHNSYPPTFGRGTKVEIKRTVAAPSVFIFPPSDEQLKSGTASVVCLLNNFYPREAKVQWKVDNALQSGNSQESVTEQDSKDSTYSLSSTLTLSKADYEKHKVYACEVTHQGLSSPVTKSFNRGEC | 16.6 fold | 20 nM | binds | 3 fold | binds | binds | 7.5 nM | binds | 0.25 nM |  |  | 
mAb11 (antibody, also called mAb2N108Q; mAb2 N108Q) heavy: not shown light: QAVVTQSPSSLPASVGDRVTITCRASQDIRNNLGWYQQKPGKAPERLIYGTSNLQSGVPSRFSGSGSGTEFTLTISSLQPEDFATYYCLQHNSYPPTFGRGTKVEIKRTVAAPSVFIFPPSDEQLKSGTASVVCLLNNFYPREAKVQWKVDNALQSGNSQESVTEQDSKDSTYSLSSTLTLSKADYEKHKVYACEVTHQGLSSPVTKSFNRGEC | 1.1 fold | 301 nM | binds | 1.1 fold |  |  | 20 nM | binds | 0.22 nM |  |  | binding result [23]: binds
mAb13 (antibody, also called mAb2N108QYTE) heavy: QVQLVQSGAEVKKPGASVKVSCKVSGYILSKLSVHWVRQAPGKGLEWMGGSEREDGETVYAQKFQGRISLTEDTSIETAYMELSSLSSEDTAVYYCATGGFWSMIGGQGVDYWGQGTLVTVSSASTKGPSVFPLAPSSKSTSGGTAALGCLVKDYFPEPVTVSWNSGALTSGVHTFPAVLQSSGLYSLSSVVTVPSSSLGTQTYICNVNHKPSNTKVDKKVEPKSCDKTHTCPPCPAPELLGGPSVFLFPPKPKDTLYITREPEVTCVVVDVSHEDPEVKFNWYVDGVEVHNAKTKPREEQYNSTYRVVSVLTVLHQDWLNGKEYKCKVSNKALPAPIEKTISKAKGQPREPQVYTLPPSRDELTKNQVSLTCLVKGFYPSDIAVEWESNGQPENNYKTTPPVLDSDGSFFLYSKLTVDKSRWQQGNVFSCSVMHEALHNHYTQKSLSLSPG light: QAVVTQSPSSLPASVGDRVTITCRASQDIRNNLGWYQQKPGKAPERLIYGTSNLQSGVPSRFSGSGSGTEFTLTISSLQPEDFATYYCLQHNSYPPTFGRGTKVEIKRTVAAPSVFIFPPSDEQLKSGTASVVCLLNNFYPREAKVQWKVDNALQSGNSQESVTEQDSKDSTYSLSSTLTLSKADYEKHKVYACEVTHQGLSSPVTKSFNRGEC | 13.7 fold | 24 nM | binds | 13.7 fold |  |  | 1.6 nM | binds |  | binds | binds | 
mAb14 (antibody, also called mAb2N108QLS) heavy: not shown light: QAVVTQSPSSLPASVGDRVTITCRASQDIRNNLGWYQQKPGKAPERLIYGTSNLQSGVPSRFSGSGSGTEFTLTISSLQPEDFATYYCLQHNSYPPTFGRGTKVEIKRTVAAPSVFIFPPSDEQLKSGTASVVCLLNNFYPREAKVQWKVDNALQSGNSQESVTEQDSKDSTYSLSSTLTLSKADYEKHKVYACEVTHQGLSSPVTKSFNRGEC | 18.2 fold | 18 nM | binds | 3.6 fold |  |  | 6.2 nM | binds | 0.12 nM | binds | binds | 
